Test results as given in US20240343820A1.

Biological target: anti-CD20 scFv-14
Assay: Octet (BLI) equilibrium binding, hybridoma supernatant; antigen format not stated

| Kd | Binder |
| --- | --- |
| 0.00131 nM | 29F8 (antibody, V domains shown) VH: QIQLVQSGPELKKPGETVKISCKASGYTFTTYGMSWVKQAPGKGLKWMGWINTYSGVPTYADDFKGRFAFSLETSASTAYLQINNLKNEDSATYFCARYYYGSNYDYWGQGTTLTVSS VL: DIQMTQSPASLSASVGETVTITCRASENIYSYLAWYQQKQGKSPQLLVNNAKTLAEGVPSRFSGSGSGTQFSLKINSLQPEDFGSYYCQHHYGSPPTFGSGTKLEIK |
| 0.0534 nM | 29F1 (antibody, V domains shown) VH: QIQLVQSGPELKKPGETVKISCKASGYTFTTYGMSWVKQAPGKGLKWMGWINTYSGVPTYADDFKGRFAFSLETSASTAYLQINNLKNEDTATYFCARFYYGSSFDYWGQGTTLTVSS VL: DIQMTQSPASLSASVGETVTITCRASENIYSYLAWYQQKQGKSPQLLVYNAKTLAEGVPSRFSGSGSGTQFSLKINSLQPEDFGSYYCQHHYGTPLTFGAGTKLELK |
| 3.72 nM | 23C11 (antibody, V domains shown) VH: QVQLQQPGAELVRPGSSVKLSCKASGYTFTSYWMHWVKQRPIQGLEWIGNIDPSDSETHYNQKFKDKATLTVDKSSSTAYMQLSSLTSEDSAVYYCARAGRVFYYAMDYWGQGTSVTVSS VL: DIQMTQTTSSLSASLGDRVTISCRASQDISNYLNWYQQKPDGTVKLLIYYTSRLHSGVPSRFSGSGSGTDYSLTISNLEQEDIATYFCQQGNTLYTFGGGTKLEIK |
| 0.00138 nM | 24C12 (antibody, V domains shown) VH: QVQLQQSGAELMKPGASVKLSCKATGHTFTGYWIEWVKQRPGHGLEWIGEILPGSGSTNYNEKFKGKATFTADTSSNTAYMQLSSLTTEDSAIYYCAREGFAYWGQGTLVTVSA VL: DIVMTQSHKFMSTSVGDRVSITCKASQDVGIAVAWYQQKPGQSPKLLIYWASTRHTGVPDRFTGSGSGTDFTLTISNVQSEDLADYFCQQYSSYPYTFGGGTKLEIK |
| 3.9 nM | 24C7 (antibody, V domains shown) VH: QVQLQQSGPELVKPGASVKISCKASGYSFTSYYIHWVKQRPGQGLEWIGWIYPGSGNTKYNEKFKGKATLTADTSSSTAYMQLSSLTSEDSAVYYCARCVLLDYFDYWGQGTTLTVSS VL: DIQMTQSPSSLSASLGERVSLTCRASQEISGYLSWLQQKPDGTIKRLIYAASTLDSGVPKRFSGSRSGSDYSLTISSLESEDFADYYCLQYASYPYTFGGGTKLEIK |
| 0.00408 nM | 25F10 (antibody, V domains shown) VH: QVHLQQSGPELVKPGASVKISCKASGYSFTSYYIHWVKQRPGQGLEWIGWIYPRSGNTNYNEKFKDKATLAADTSSSAAYMQLSSLTSEDSAVYYCGRSDFYYGSDYWGQGTTLTVSS VL: DIQMTQSPSSLSASLGERVSLTCRASQEISGYLGWLQQKPDGTIKRLIYAASTLDSGVPRRFSGSRSGSDYSLTFSSLESEDFADYYCLQYASYPWTFGGGTKLEIK |
| 0.633 nM | 22H5 (antibody, V domains shown) VH: DVQLQESGPGMVKPSQSLSLTCTVTGYSITSGYDWHWIRHFPGNKLEWMGYISYSGSTNYNPSLKSRISITHDTSKNHFFLKLNSVTTEDTATYYCAREGYSNYFDSWGQGTTLTVSS VL: SIVMTQTPKFLLVSAGDRVTITCKASQSVSNDVAWYQQKPGQSPKLLIFYASNRYTGVPDRFTGSGYGTDFTFTISTVQAEDLAVYFCQQDYSSPLAFGAGTKLELK |
| 3.28 nM | 23E1 (antibody, V domains shown) VH: EVQLQQSGPVLVKPGPSVKISCKASGFTFTDYYMHWVKQSHGKSLEWIGLVYPYNGGTSYNQKFKGKATLTVDTSSSTAYMELNSLTSEDSAVYYCARRGQRVWYFDVWGTGTTVTVSS VL: DIQMTQSPSSLSASLGGKVTITCKASQDINKYIAWYQHKPGKGPRLLIHYTSTLQPGIPSRFSGSGSGRDYSFSISNLEPEDIATYYCLQYDNLYTFGGGTKLEIK |
| 0.382 nM | 25B2 (antibody, V domains shown) VH: QIQLVQSGPELKKPGETVKISCKASGYTFTTYGMSWVKQAPGKGLKWMGWINTYSGVPTYADDFKGRFAFSLETSASTAYLQINNLKNEDTATYFCARTYYGNYFDYWGQGTTLTVSS VL: DIQMTQSPSSLSASLGGKVTITCKASQDINKYIAWYQHKPGKGPRLLIHYTSTLQPGIPSRFSGSGSGRDYSFSISNLEPEDIATYYCLQYDNLYTFGGGTKLEIK |
